The text below walks through data of article PMC3946280, “Crystal Structures of the Novel Cytosolic 5′-Nucleotidase IIIB Explain Its Preference for m^7GMP” (PLoS ONE, 2014).

One data set has as its target T1, HscN-IIIA (Homo sapiens, UniProt Q9H0P0).
T1 construct: gene NT5C3A
As to conditions: 37 °C; preincubated with 5 mM DTT.

The target in data set [1] is T2, DmcN-IIIB (Drosophila melanogaster, UniProt Q9W197).
T2 construct: gene cN-IIIB; full length 1-319; His6-SUMO fusion from pET-SUMOadapt in E. coli Rosetta 2(DE3), tag cleaved (stated for crystallization)
T2 sequence (Q9W197 1-319): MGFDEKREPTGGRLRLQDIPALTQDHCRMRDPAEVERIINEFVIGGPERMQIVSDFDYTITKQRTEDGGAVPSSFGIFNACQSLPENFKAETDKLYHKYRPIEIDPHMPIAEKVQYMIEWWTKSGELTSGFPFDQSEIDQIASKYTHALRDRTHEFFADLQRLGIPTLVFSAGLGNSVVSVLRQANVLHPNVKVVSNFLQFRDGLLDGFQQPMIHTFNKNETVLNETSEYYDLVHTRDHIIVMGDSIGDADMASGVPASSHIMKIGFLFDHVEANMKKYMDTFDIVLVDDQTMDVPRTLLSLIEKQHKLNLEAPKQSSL
The experiment in a line: X-ray crystal structure, […] Å. The format is binding. As to conditions: co-crystallized, no MgF3− density; pH 7.5; active site.

In data set [2] the target is T2, DmcN-IIIB. The data set can be described thus: X-ray crystal structure, […] Å. Type of data set: binding. To be noted: co-crystallized with MgF3− and Mg2+; pH 7.5; active site.
Substrate in data set [3]: C[n+]1cn([C@@H]2O[C@H](COP(=O)(O)O)[C@@H](O)[C@H]2O)c2nc(N)[nH]c(=O)c21
The experiment in a line: colorimetric malachite green phosphate assay. Type of data set: biochemical, Drosophila melanogaster. To be noted: 25 °C.

Substrate in data set [4]: Nc1ccn([C@@H]2O[C@H](COP(=O)(O)O)[C@@H](O)[C@H]2O)c(=O)n1
The data set can be described thus: colorimetric malachite green phosphate assay. Type of data set: biochemical, Drosophila melanogaster. As to conditions: 25 °C.

Substrate in the data set “purified protein”: Nc1ccn([C@@H]2O[C@H](COP(=O)(O)O)[C@@H](O)[C@H]2O)c(=O)n1
The experiment in a line: purified protein. To be noted: 37 °C, preincubated with 5 mM DTT.

Substrate in data set [5]: C[n+]1cn([C@@H]2O[C@H](COP(=O)(O)O)[C@@H](O)[C@H]2O)c2nc(N)[nH]c(=O)c21
The data set can be described thus: colorimetric malachite green phosphate assay. As to conditions: 37 °C, preincubated with 5 mM DTT. Type of data set: biochemical, Homo sapiens.

Residue numbers refer to the chain shown, from its start. Numbers in names are those of the source.

The term Km denotes the substrate concentration at which the rate is half of its maximum. In the case of `Nc1ccn([C@@H]2O[C@H](COP(=O)(O)O)[C@@H](O)[C@H]2O)c(=O)n1` [CMP], on HscN-IIIA, the Km came to 80 µM.
For `Nc1ccn([C@@H]2O[C@H](CO)[C@@H](O)[C@H]2O)c(=O)n1` [cytidine], the “X-ray crystal structure, 2.05 Å” value at DmcN-IIIB [1] is on record as “crystal structures of ^DmcN-IIIB bound to 7-methylguanosine or cytidine have been deposited”.
Regarding `C[n+]1cn([C@@H]2O[C@H](COP(=O)(O)O)[C@@H](O)[C@H]2O)c2nc(N)[nH]c(=O)c21` [m^7GMP], the Km at HscN-IIIA stood at 15 µM.
For the molecule `C[n+]1cn([C@@H]2O[C@H](CO)[C@@H](O)[C@H]2O)c2nc(N)[nH]c(=O)c21` [7-methylguanosine], the “X-ray crystal structure, 1.65 Å” value on DmcN-IIIB [2] was “crystal structures of ^DmcN-IIIB bound to 7-methylguanosine or cytidine have been deposited”.

B1: DmcN-IIIB (Drosophila melanogaster) (protein)
chain: T2 sequence (Q9W197 1-319)
notes: full length 1-319; His6-SUMO fusion from pET-SUMOadapt in E. coli Rosetta 2(DE3), tag cleaved (stated for crystallization)
Broadly, the kcat is the maximal rate divided by the concentration of active sites. What is called kcat/Km is the turnover number divided by the Michaelis constant. For the molecule B1, in data set [3], the Michaelis-Menten constant (Km) is 12 µM, the kcat turned out to be 4.8 s⁻¹ and the kcat/Km is 403000 M⁻¹ s⁻¹. In data set [4], the Km came to 48 µM, the kcat worked out at 12 s⁻¹ and the specificity constant (kcat/Km) is 242000 M⁻¹ s⁻¹.

B2: DmcN-IIIB (Drosophila melanogaster; F75H/W121Y) (protein)
chain: T2 sequence (Q9W197 1-319) with F75H, W121Y
notes: as for B1
B2: in data set [3] (variant HGWY), the Michaelis constant (Km) worked out at 2 µM, the kcat was found to be 1.5 s⁻¹ and the specificity constant (kcat/Km) was 755000 M⁻¹ s⁻¹. In data set [4] (variant HGWY), the Km was 93 µM, the kcat amounted to 3 s⁻¹ and the kcat/Km stood at 32500 M⁻¹ s⁻¹.

B3: DmcN-IIIB (Drosophila melanogaster; W121Y) (protein)
chain: T2 sequence (Q9W197 1-319) with W121Y
notes: as for B1
For the molecule B3, in data set [4] (variant FGWY), the Km turned out to be 14 µM, the kcat stood at 6 s⁻¹ and the kcat/Km was determined as 410000 M⁻¹ s⁻¹.

B4: DmcN-IIIB (Drosophila melanogaster; F75H) (protein)
chain: T2 sequence (Q9W197 1-319) with F75H
notes: as for B1
With B4, in data set [3] (variant HGWW), the Km is on record as 40 µM, the kcat was found to be 4.2 s⁻¹ and the kcat/Km is 106000 M⁻¹ s⁻¹. In data set [4] (variant HGWW), the Km is 490 µM, the kcat was 8 s⁻¹ and the kcat/Km was found to be 16000 M⁻¹ s⁻¹.

B5: DmcN-IIIB (Drosophila melanogaster; G76N/W121Y) (protein)
chain: T2 sequence (Q9W197 1-319) with G76N, W121Y
notes: as for B1
Consider B5, for which, in data set [3] (variant FNWY), the Km was found to be 8 µM, the kcat was found to be 0.3 s⁻¹ and the catalytic efficiency (kcat/Km) was 37800 M⁻¹ s⁻¹.

B6: DmcN-IIIB (Drosophila melanogaster; G76N) (protein)
chain: T2 sequence (Q9W197 1-319) with G76N
notes: as for B1
As for B6, in data set [3] (variant FNWW), the Km is recorded as 2 µM, the turnover number (kcat) worked out at 1.1 s⁻¹ and the kcat/Km worked out at 545000 M⁻¹ s⁻¹. Also, in data set [4] (variant FNWW), the Michaelis constant (Km) came to 51 µM, the kcat came to 8 s⁻¹ and the kcat/Km turned out to be 166000 M⁻¹ s⁻¹.

B7: DmcN-IIIB (Drosophila melanogaster; F75H/G76N/W121Y) (protein)
chain: T2 sequence (Q9W197 1-319) with F75H, G76N, W121Y
notes: as for B1
For the molecule B7, in data set [3] (variant HNWY), the Km is recorded as 11 µM, the kcat was determined as 0.5 s⁻¹ and the kcat/Km was determined as 49500 M⁻¹ s⁻¹. In data set [4] (variant HNWY), the Km is 315 µM, the kcat stood at 9 s⁻¹ and the kcat/Km was determined as 28800 M⁻¹ s⁻¹.

B8: HscN-IIIB (Homo sapiens) (protein)
chain: MAEEVSTLMKATVLMRQPGRVQEIVGALRKGGGDRLQVISDFDMTLSRFAYNGKRCPSSYNILDNSKIISEECRKELTALLHHYYPIEIDPHRTVKEKLPHMVEWWTKAHNLLCQQKIQKFQIAQVVRESNAMLREGYKTFFNTLYHNNIPLFIFSAGIGDILEEIIRQMKVFHPNIHIVSNYMDFNEDGFLQGFKGQLIHTYNKNSSACENSGYFQQLEGKTNVILLGDSIGDLTMADGVPGVQNILKIGFLNDKVEERRERYMDSYDIVLEKDETLDVVNGLLQHILCQGVQLEMQGP
On to B8, for which, in “purified protein”, the Km was determined as 79 µM, the kcat was determined as 7 s⁻¹ and the kcat/Km turned out to be 87100 M⁻¹ s⁻¹. Further, in data set [5], the Km is recorded as 8 µM, the kcat was determined as 0.5 s⁻¹ and the kcat/Km is 64500 M⁻¹ s⁻¹.
